The text below walks through data of US20190359693A1.

What all share (experiment): cell-based or functional assay
Assay [1] concerns the target hemagglutinin (HA) of influenza virus H1N1 A/New Caledonia/20/99 (influenza A virus).
For assay [2], the target named is hemagglutinin (HA) of influenza virus H3N2 A/Wisconsin/67/05 (influenza A virus).
The target in assay [3] is hemagglutinin (HA) of influenza virus B/Florida/04/06 (Yamagata) (influenza B virus).
Assay [4] deals with hemagglutinin (HA) of influenza virus H7N7 A/PR8 H7N7-NY (influenza A virus).
Assay [5] concerns the target hemagglutinin (HA) of influenza virus H7N3 A/NIBRG/60 (A/mallard/Netherlands/12/00) (influenza A virus).
In assay [6] the target is hemagglutinin (HA) of influenza virus B/Lee/40 (Old) (influenza B virus) (UniProt P03460).
Assay [7] concerns the target HA of H1N1 A/Puerto Rico/8/34-MA (influenza A virus).
The target in assay [8] is HA of H7N3 A/NIBRG/60 (A/mallard/NL/12/00) (influenza A virus).
Assay [9] concerns the target HA of H5N1 A/Vietnam/1194/04 (influenza A virus).
Assay [10] has as its target HA of H1N1 A/New Caledonia/20/1999 (influenza A virus).
For assay [11], the target named is HA of H3N2 A/Brisbane/10/2007 (influenza A virus).
Assay [12] has as its target hemagglutinin (HA) of influenza virus H3N2 A/Brisbane/10/07 (influenza A virus).
Assay [13] addresses hemagglutinin (HA) of influenza virus H5N1 A/Vietnam/1194/04 (influenza A virus).
Assay [14] concerns the target hemagglutinin (HA) of influenza virus H1N1 A/Puerto Rico/8/34-MA (influenza A virus).

B1: MD2302 (bispecific antibody)
chain: EVQLVESGGGLVQPGGSLRLSCAVSISIFDIYAMDWYRQAPGKQRDLVATSFRDGSTNYADSVKGRFTISRDNAKNTLYLQMNSLKPEDTAVYLCHVSLYRDPLGVAGGMGVYWGKGALVTVSSGGGGSGGGGSEVQLVESGGGLVQPGGSLRLSCAATGFTLENKAIGWFRQTPGSEREGVLCISKSGSWTYYTDSMRGRFTISRDNAENTVYLQMDSLKPEDTAVYYCATTTAGGGLCWDGTTFSRLASSWGQGTQVTVSSGGGGSGGGGSEVQLVESGGGLVQAGGSLKLSCAASGRTYAMGWFRQAPGKEREFVAHINALGTRTYYSDSVKGRFTISRDNAKNTEYLEMNNLKPEDTAVYYCTAQGQWRAAPVAVAAEYEFWGQGTQVTVSS
B1: the average neutralization titer in assay [1] worked out at 14.7 nM; in assay [2], 34.7 nM; in assay [3], 412 nM.

B2: MD2301 (bispecific antibody)
chain: EVQLVESGGGLVQPGGSLRLSCAATGFTLENKAIGWFRQTPGSEREGVLCISKSGSWTYYTDSMRGRFTISRDNAENTVYLQMDSLKPEDTAVYYCATTTAGGGLCWDGTTFSRLASSWGQGTQVTVSSGGGGSGGGGSEVQLVESGGGLVQPGGSLRLSCAVSISIFDIYAMDWYRQAPGKQRDLVATSFRDGSTNYADSVKGRFTISRDNAKNTLYLQMNSLKPEDTAVYLCHVSLYRDPLGVAGGMGVYWGKGALVTVSSGGGGSGGGGSEVQLVESGGGLVQAGGSLKLSCAASGRTYAMGWFRQAPGKEREFVAHINALGTRTYYSDSVKGRFTISRDNAKNTEYLEMNNLKPEDTAVYYCTAQGQWRAAPVAVAAEYEFWGQGTQVTVSS
With B2, the results for the average neutralization titer in assay [1], in [2] and in assay [3] were 14.7 nM, 34.7 nM and 412 nM, respectively.

B3: MD2322 (VHH)
chain: EVQLVESGGGLVQPGGSLRLSCAVSISIFDIYAMDWYRQAPGKQRDLVATSFRDGSTNYADSVKGRFTISRDNAKNTLYLQMNSLKPEDTAVYLCHVSLYRDPLGVAGGMGVYWGKGALVTVSSGGGGSGGGGSEVQLVESGGGLVQPGGSLRLSCAVSISIFDIYAMDWYRQAPGKQRDLVATSFRDGSTNYADSVKGRFTISRDNAKNTLYLQMNSLKPEDTAVYLCHVSLYRDPLGVAGGMGVYWGKGALVTVSSGGGGSGGGGSEVQLVESGGGLVQPGGSLRLSCAVSISIFDIYAMDWYRQAPGKQRDLVATSFRDGSTNYADSVKGRFTISRDNAKNTLYLQMNSLKPEDTAVYLCHVSLYRDPLGVAGGMGVYWGKGALVTVSS
As to B3, the figures for the average neutralization titer in [4], in assay [2] and in [5] were 14.7 nM, 7.3 nM and 6.1 nM, respectively.

B4: MD1223 (bispecific antibody)
chain: EVQLVESGGGLVQPGGSLKLSCAASGFTFSTSWMYWLRQAPGKGLEWVSVINTDGGTYYADSVKDRFTISRDNAKDTLYLQMSSLKSEDTAVYYCAKDWGGPEPTRGQGTQVTVSSAAAGGGGSGGGGSGGGGSGGGGSGGGGSGGGGSGGGGSEVQLVESGGGLVQPGGSLRLSCAATGFTLENKAIGWFRQTPGSEREGVLCISKSGSWTYYTDSMRGRFTISRDNAENTVYLQMDSLKPEDTAVYYCATTTAGGGLCWDGTTFSRLASSWGQGTQVTVSS
Take B4: the values for the neutralization titer in assay [3] and in [6] were 2.3 nM and 18 nM, respectively.

B5: SD1034 (VHH)
VHH: EVQLVESGGGLVQAGGSLRLSCAASGTIFGIRVNTMGWYRQAPGEQRELVATITRSGGTNYADSVKDRFTISGDFAKDTVYLQMMHLKPEDTAVYYCNGRWALTDYWGQGTQVTVSS
On to B5, for which the VNA titer in assay [7] is 756 nM; in assay [8] it was > 1000 nM; in assay [9] it was 722 nM; in [10], 161 nM; in assay [11] it was > 1000 nM.

B6: MD2306 (bispecific antibody)
chain: EVQLVESGGGLVQPGGSLRLSCAVSISIFDIYAMDWYRQAPGKQRDLVATSFRDGSTNYADSVKGRFTISRDNAKNTLYLQMNSLKPEDTAVYLCHVSLYRDPLGVAGGMGVYWGKGALVTVSSGGGGSGGGGSEVQLVESGGGLVQPGGSLRLSCAVSISIFDIYAMDWYRQAPGKQRDLVATSFRDGSTNYADSVKGRFTISRDNAKNTLYLQMNSLKPEDTAVYLCHVSLYRDPLGVAGGMGVYWGKGALVTVSSGGGGSGGGGSEVQLVESGGGLVQPGGSLRLSCAATGFTLENKAIGWFRQTPGSEREGVLCISKSGSWTYYTDSMRGRFTISRDNAENTVYLQMDSLKPEDTAVYYCATTTAGGGLCWDGTTFSRLASSWGQGTQVTVSS
Consider B6, for which the average neutralization titer in [1] amounted to 6.1 nM; in assay [12] it was 10.7 nM; in assay [2], 5.4 nM; in assay [5], 15.4 nM; in assay [13], 4.7 nM.

B7: MD2305 (bispecific antibody)
chain: EVQLVESGGGLVQPGGSLRLSCAVSISIFDIYAMDWYRQAPGKQRDLVATSFRDGSTNYADSVKGRFTISRDNAKNTLYLQMNSLKPEDTAVYLCHVSLYRDPLGVAGGMGVYWGKGALVTVSSGGGGSGGGGSEVQLVESGGGLVQPGGSLRLSCAATGFTLENKAIGWFRQTPGSEREGVLCISKSGSWTYYTDSMRGRFTISRDNAENTVYLQMDSLKPEDTAVYYCATTTAGGGLCWDGTTFSRLASSWGQGTQVTVSSGGGGSGGGGSEVQLVESGGGLVQPGGSLRLSCAVSISIFDIYAMDWYRQAPGKQRDLVATSFRDGSTNYADSVKGRFTISRDNAKNTLYLQMNSLKPEDTAVYLCHVSLYRDPLGVAGGMGVYWGKGALVTVSS
As for B7, the average neutralization titer amounted to 4.3 nM in assay [1] and 21.7 nM in assay [2].

B8: SD1036 + SD1038 (protein)
VHH 1: EVQLVESGGGLVQAGGSLKLSCAASGRTYAMGWFRQAPGKEREFVAHINALGTRTYYSDSVKGRFTISRDNAKNTEYLEMNNLKPEDTAVYYCTAQGQWRAAPVAVAAEYEFWGQGTQVTVSS
VHH 2: EVQLVESGGGLVQPGGSLRLSCAVSISIFDIYAMDWYRQAPGKQRDLVATSFRDGSTNYADSVKGRFTISRDNAKNTLYLQMNSLKPEDTAVYLCHVSLYRDPLGVAGGMGVYWGKGALVTVSS
In the case of B8, the neutralization titer in assay [2] was < 1000 nM; in [13] it was 19.3 nM; in assay [14] it was 6.8 nM.

B9: MD2304 (bispecific antibody)
chain: EVQLVESGGGLVQPGGSLRLSCAATGFTLENKAIGWFRQTPGSEREGVLCISKSGSWTYYTDSMRGRFTISRDNAENTVYLQMDSLKPEDTAVYYCATTTAGGGLCWDGTTFSRLASSWGQGTQVTVSSGGGGSGGGGSEVQLVESGGGLVQPGGSLRLSCAVSISIFDIYAMDWYRQAPGKQRDLVATSFRDGSTNYADSVKGRFTISRDNAKNTLYLQMNSLKPEDTAVYLCHVSLYRDPLGVAGGMGVYWGKGALVTVSSGGGGSGGGGSEVQLVESGGGLVQPGGSLRLSCAVSISIFDIYAMDWYRQAPGKQRDLVATSFRDGSTNYADSVKGRFTISRDNAKNTLYLQMNSLKPEDTAVYLCHVSLYRDPLGVAGGMGVYWGKGALVTVSS
On to B9, for which the values for the average neutralization titer in assay [1] and in assay [2] were 20.6 nM and 18.2 nM, respectively.

B10: MD2317 (bispecific antibody)
chain: EVQLVESGGGLVQPGGSLRLSCAVSISIFDIYAMDWYRQAPGKQRDLVATSFRDGSTNYADSVKGRFTISRDNAKNTLYLQMNSLKPEDTAVYLCHVSLYRDPLGVAGGMGVYWGKGALVTVSSGGGGSGGGGSEVQLVESGGGLVQAGDSLRISCAASGRTLSIYSMGWFRQAPGKEREFVATIGWNSGRTFYPDSLKGRFTISRDNARNTLYLQMNNLRPEDTAVYYCAAAKGPLRLSSQADYWGQGTQVTVSSGGGGSGGGGSEVQLVESGGGLVQPGGSLRLSCAATGFTLENKAIGWFRQTPGSEREGVLCISKSGSWTYYTDSMRGRFTISRDNAENTVYLQMDSLKPEDTAVYYCATTTAGGGLCWDGTTFSRLASSWGQGTQVTVSS
On to B10, for which the average neutralization titer in [4], in assay [2] and in assay [5] was 12.8 nM in each case.

B11: MD2320 (bispecific antibody)
chain: EVQLVESGGGLVQAGDSLRISCAASGRTLSIYSMGWFRQAPGKEREFVATIGWNSGRTFYPDSLKGRFTISRDNARNTLYLQMNNLRPEDTAVYYCAAAKGPLRLSSQADYWGQGTQVTVSSGGGGSGGGGSEVQLVESGGGLVQPGGSLRLSCAVSISIFDIYAMDWYRQAPGKQRDLVATSFRDGSTNYADSVKGRFTISRDNAKNTLYLQMNSLKPEDTAVYLCHVSLYRDPLGVAGGMGVYWGKGALVTVSSGGGGSGGGGSEVQLVESGGGLVQPGGSLRLSCAATGFTLENKAIGWFRQTPGSEREGVLCISKSGSWTYYTDSMRGRFTISRDNAENTVYLQMDSLKPEDTAVYYCATTTAGGGLCWDGTTFSRLASSWGQGTQVTVSS
For B11, the results for the average neutralization titer in assay [4], in assay [2] and in assay [5] were 15.3 nM, > 1000 nM and 15.3 nM, respectively.
